Experimental findings from paper PMC9168836, “Clamping of DNA shuts the condensin neck gate” (Proceedings of the National Academy of Sciences of the …, 2021) are described below.

For one experiment, the target named is T1, Smc4-3xStrepII (budding yeast (S. cerevisiae), UniProt Q12267 1-1418).
T1 construct: Smc4, SMC subunit of budding yeast (S. cerevisiae) condensin; only the head domain, proximal coiled coil and residues 126-144 are resolved in the maps; The tag's end is read from the plasmid's name SMC4-3xStrepII; also called Scm4
T1 sequence: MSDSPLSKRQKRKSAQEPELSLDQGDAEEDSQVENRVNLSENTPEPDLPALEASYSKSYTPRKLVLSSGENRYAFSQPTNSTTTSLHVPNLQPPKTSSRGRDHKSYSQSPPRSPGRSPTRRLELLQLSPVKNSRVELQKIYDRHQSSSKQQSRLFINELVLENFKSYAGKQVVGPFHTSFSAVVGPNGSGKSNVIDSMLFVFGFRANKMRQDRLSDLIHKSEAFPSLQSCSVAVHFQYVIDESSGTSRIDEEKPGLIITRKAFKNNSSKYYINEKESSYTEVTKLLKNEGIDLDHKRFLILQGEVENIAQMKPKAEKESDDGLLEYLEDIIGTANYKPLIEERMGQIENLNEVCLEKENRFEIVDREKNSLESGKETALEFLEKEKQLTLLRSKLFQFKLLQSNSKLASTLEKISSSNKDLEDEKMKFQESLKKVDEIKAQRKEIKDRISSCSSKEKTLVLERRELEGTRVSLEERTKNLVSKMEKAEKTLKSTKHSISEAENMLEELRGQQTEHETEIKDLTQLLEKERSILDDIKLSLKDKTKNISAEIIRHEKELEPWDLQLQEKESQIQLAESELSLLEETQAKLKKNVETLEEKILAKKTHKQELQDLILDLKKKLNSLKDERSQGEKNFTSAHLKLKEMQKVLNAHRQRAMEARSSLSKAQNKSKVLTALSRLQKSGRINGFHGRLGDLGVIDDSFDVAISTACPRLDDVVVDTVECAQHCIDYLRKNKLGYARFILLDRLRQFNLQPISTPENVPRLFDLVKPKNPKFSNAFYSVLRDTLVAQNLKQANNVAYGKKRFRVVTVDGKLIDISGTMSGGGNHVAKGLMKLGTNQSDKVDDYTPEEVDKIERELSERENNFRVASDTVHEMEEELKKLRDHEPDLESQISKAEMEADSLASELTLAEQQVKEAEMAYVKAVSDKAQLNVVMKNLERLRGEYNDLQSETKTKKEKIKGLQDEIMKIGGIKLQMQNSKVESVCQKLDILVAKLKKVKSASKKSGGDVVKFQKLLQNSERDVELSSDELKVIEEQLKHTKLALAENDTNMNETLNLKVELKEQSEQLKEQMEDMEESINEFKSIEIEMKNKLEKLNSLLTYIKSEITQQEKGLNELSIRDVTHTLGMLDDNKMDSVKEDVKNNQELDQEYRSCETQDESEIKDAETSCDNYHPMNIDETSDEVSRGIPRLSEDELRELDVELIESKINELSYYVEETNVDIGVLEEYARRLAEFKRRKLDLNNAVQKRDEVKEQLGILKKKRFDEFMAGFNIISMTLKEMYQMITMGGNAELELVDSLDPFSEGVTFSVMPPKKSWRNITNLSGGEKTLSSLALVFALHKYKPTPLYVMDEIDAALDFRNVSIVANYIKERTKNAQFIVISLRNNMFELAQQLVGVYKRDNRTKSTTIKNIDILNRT
Briefly: cryo-EM structure; condensin pentamer (Smc2, Smc4, Brn1, Ycs4, Ycg1) with 80-bp dsDNA, 5 mM ADP, 1 mM BeSO4, 10 mM NaF in TNT buffer pH 7.5; separate maps of the clamped head module and of Ycg1-DNA. The following applies: both partners purified.

In a further experiment the target is T2, Ycg1 (budding yeast (S. cerevisiae), UniProt Q06680 1-1035).
T2 construct: Ycg1, HAWK (HEAT repeat) subunit of budding yeast (S. cerevisiae) condensin
T2 sequence: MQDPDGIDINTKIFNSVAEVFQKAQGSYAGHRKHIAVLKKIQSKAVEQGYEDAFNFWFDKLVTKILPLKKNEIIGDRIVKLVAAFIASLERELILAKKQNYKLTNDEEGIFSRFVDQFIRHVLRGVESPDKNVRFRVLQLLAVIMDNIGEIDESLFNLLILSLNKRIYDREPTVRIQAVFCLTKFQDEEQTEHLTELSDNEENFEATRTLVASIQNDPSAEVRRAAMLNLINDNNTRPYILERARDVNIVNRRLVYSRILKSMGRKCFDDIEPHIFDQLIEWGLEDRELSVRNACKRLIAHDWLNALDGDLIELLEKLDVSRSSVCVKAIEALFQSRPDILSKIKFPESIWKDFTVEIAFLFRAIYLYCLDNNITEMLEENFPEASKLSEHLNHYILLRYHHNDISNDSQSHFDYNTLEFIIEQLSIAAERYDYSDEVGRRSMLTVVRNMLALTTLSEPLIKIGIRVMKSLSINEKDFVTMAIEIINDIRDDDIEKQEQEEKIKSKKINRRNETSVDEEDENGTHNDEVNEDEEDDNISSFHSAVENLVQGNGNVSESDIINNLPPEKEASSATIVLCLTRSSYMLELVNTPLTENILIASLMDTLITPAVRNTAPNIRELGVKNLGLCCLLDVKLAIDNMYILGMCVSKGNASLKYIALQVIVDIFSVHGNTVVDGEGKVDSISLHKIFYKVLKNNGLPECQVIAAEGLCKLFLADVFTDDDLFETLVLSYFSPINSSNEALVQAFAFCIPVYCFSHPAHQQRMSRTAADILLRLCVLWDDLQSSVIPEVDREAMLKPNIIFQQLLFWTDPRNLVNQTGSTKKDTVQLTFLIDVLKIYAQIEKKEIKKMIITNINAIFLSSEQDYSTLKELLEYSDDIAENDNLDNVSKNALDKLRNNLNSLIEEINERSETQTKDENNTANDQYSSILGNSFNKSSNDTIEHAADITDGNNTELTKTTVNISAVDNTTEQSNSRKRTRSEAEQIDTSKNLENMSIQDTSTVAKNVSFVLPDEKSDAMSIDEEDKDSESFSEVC
The experiment is described as above. Conditions: both partners purified.

B1: Brn1-HA3-His12 (natural protein, budding yeast (S. cerevisiae), UniProt P38170 1-754, looked up)
chain: MTTQLRYENNDDDERVEYNLFTNRSTMMANFEEWIKMATDNKINSRNSWNFALIDYFYDLDVLKDGENNINFQKASATLDGCIKIYSSRVDSVTTETGKLLSGLAQRKTNGASNGDDSNGGNGEGLGGDSDEANIEIDPLTGMPISNDPDVNNTRRRVYNRVLETTLVEFETIKMKELDQELIIDPLFKKALVDFDEGGAKSLLLNTLNIDNTARVIFDASIKDTQNVGQGKLQRKEEELIERDSLVDDENEPSQSLISTRNDSTVNDSVISAPSMEDEILSLGMDFIKFDQIAVCEISGSIEQLRNVVEDINQAKDFIENVNNRFDNFLTEEELQAAVPDNAEDDSDGFDMGMQQELCYPDENHDNTSHDEQDDDNVNSTTGSIFEKDLMAYFDENLNRNWRGREHWKVRNFKKANLVNKESDLLEETRTTIGDTTDKNTTDDKSMDTKKKHKQKKVLEIDFFKTDDSFEDKVFASKGRTKIDMPIKNRKNDTHYLLPDDFHFSTDRITRLFIKPGQKMSLFSHRKHTRGDVSSGLFEKSTVSANHSNNDIPTIADEHFWADNYERKEQEEKEKEQSKEVGDVVGGALDNPFEDDMDGVDFNQAFEGTDDNEEASVKLDLQDDEDHKFPIRENKVTYSRVSKKVDVRRLKKNVWRSINNLIQEHDSRKNREQSSNDSETHTEDESTKELKFSDIIQGISKMYSDDTLKDISTSFCFICLLHLANEHGLQITHTENYNDLIVNYEDLATTQAAS
notes: Brn1, kleisin subunit of budding yeast (S. cerevisiae) condensin; 754 residues as printed (279/754 traced in the head module map); The tags' end is read from the plasmid's name BRN1-HA3-His12; also called kleisin Brn1
For the molecule B1, the binding result in the experiment with Smc4-3xStrepII and in the experiment with Ycg1 was “binds” in each case.
